Test results: US20230212543A1 (GENOVIS, published 2023)
Where no end group is shown, it is not given here.

Assays:
glycodrosocin (GD) = target: T1, glycodrosocin (GD) (not fully specified (residue 11)); test: peptide mix on immobilised double-mutant resin, LC/MS of load, flow through and eluate (FIG. 19A)
T1 construct: also called glycodrosocin peptide
T1 peptide: GKPRPYSPRPTSHPRPIRV

H8390 = target: T2, H8390; test: as above
T2 construct: Non-glycosylated peptide
T2 peptide: FLPLILGKLVKGLL

H2686 = target: T3, H2686; test: as above
T3 construct: Non-glycosylated peptide
T3 peptide: YIYGSFK

H4062 = target: T4, H4062; test: as above
T4 construct: Non-glycosylated peptide
T4 peptide: KKLVFFA

[1] = target: T5, TNFαR (the TNFα binding part of etanercept) (human, UniProt P20333 23-257, O-glycosylated; pretreated with sialidase mixture in the binding assay); test: protein mix on immobilised LSH205A/E206A resin, SDS-PAGE (FIG. 11B)
T5 construct: also called TNFaR2; TNFaR
T5 sequence (looked up): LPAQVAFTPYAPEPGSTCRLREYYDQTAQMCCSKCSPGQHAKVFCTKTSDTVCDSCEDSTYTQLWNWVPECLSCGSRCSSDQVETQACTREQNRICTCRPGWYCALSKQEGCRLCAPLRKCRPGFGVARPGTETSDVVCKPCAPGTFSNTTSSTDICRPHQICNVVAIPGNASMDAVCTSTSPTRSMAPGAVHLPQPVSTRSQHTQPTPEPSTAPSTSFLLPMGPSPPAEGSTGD

[2] = target: T6, BSA (bovine serum albumin) (bovine, UniProt P02769 25-607); test: as above
T6 construct: Non-glycosylated control protein
T6 sequence (P02769 25-607 limits assumed): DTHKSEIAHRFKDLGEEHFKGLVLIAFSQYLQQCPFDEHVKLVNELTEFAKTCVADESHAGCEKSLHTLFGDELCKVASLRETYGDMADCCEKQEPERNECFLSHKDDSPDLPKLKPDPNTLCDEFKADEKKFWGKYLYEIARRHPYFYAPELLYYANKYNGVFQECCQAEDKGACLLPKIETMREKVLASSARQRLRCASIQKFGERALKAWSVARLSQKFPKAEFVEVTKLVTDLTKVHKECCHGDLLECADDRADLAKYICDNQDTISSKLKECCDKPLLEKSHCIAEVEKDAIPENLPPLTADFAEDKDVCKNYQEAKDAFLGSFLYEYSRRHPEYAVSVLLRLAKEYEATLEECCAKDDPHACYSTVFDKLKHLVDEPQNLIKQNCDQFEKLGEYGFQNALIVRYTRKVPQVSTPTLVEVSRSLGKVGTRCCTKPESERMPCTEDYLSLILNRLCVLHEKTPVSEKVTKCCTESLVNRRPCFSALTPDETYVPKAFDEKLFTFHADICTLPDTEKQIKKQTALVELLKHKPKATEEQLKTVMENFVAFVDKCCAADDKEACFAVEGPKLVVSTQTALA

B1: LSH205A/E206A (designed binder)
chain: MEVTVPDALKDRIALKKTARQLNIVYFLGSDTEPVPDYERRLSELLLYLQQFYGKEMQRHGYGARSFGLDIKSPGRVNIIEYKAKNPAAHYPYENGGGWKAAQELDEFFKAHPDRKKSQHTLIIMPTWNDEKNGPDNPGGVPFYGMGRNCFALDYPAFDIKHLGQKTREGRLLTKWYGGMAAALGHGLNLPHNHQTASDGKKYGTALMGSGNYTFGTSPTFLTPASCALLDACEVFSVTPSQQFYEGKPEVEVGDVAISFKGDQILVSGNYKSPQTVKALNVYIQDPPYAVNQDYDAVSFSRRLGKKSGKFSMKIDKKELEGLNNNEFRISLMFILANGLHMQKHFTFHWDALQDYRDGSKSGSGHHHHHH
notes: also called LSHE206AA; Amuc1119H205A/E206A
Glycodrosocin (GD)
  binding result: binds
H8390
  binding result: no binding
H2686
  binding result: no binding
H4062
  binding result: no binding
[1]
  binding result: binds
[2]
  binding result: no binding
